Entries after “also recorded” stand apart in the source; their conditions may differ. Values belong to the molecule of their own block, whether it stands above or below them. Bridge positions count the residues as written; N and C are the ends. Square brackets hold non-standard residues; d marks the D form. Ends that are not written are not given here. * marks the point of attachment. FITC = O=C1OC2(c3ccc(O)cc3Oc3cc(O)ccc32)c2ccc(NC(=S)*)cc21; Met(O) = CS(=O)CC[C@H](N)C(=O)O; S5 = C=CCCC[C@](C)(N)C(=O)O
What was measured:
[1] = biological target: T1, RAB11 (Homo sapiens, UniProt P62491); assay: Fluorescence polarization binding of FITC-FIP/FITC-RFP peptides to RAB11; conditions: for binding affinity to RAB11: FITC peptide 15 nM, fluorescence polarization; for binding to RAB11: in the presence and absence of GTP, FITC peptide
T1 construct: RAB11 (residues 1-175) was expressed with an N-terminal GST-tag with an internal thrombin cleavage site; GST (thrombin cleavage site between tag and RAB11) (N); made in house; host or cells: Escherichia coli BL21(DE3) pLysS
T1 sequence (P62491 1-175): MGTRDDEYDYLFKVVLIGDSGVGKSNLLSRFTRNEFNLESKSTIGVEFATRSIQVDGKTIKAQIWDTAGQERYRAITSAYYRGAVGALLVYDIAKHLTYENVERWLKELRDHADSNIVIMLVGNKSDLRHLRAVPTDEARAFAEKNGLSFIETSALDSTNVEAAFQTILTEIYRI
Method: Fluorescence polarization (FP) was used to measure FIP peptide binding to RAB11 and RAB25 proteins. […] This indicated specificity in the binding measurement, as this subtle change would be expected to perturb binding.
(§1) RAB11/25 protein binding assays were performed by incubating FITC-FIP or FITC-RFP (stapled FIP derivatives) peptides (15 nM) with three-fold dilutions of recombinantly-expressed, purified RAB11, RAB25 or a various epitope-tagged version of either in protein-binding buffer (25 mM Tris-HCl, pH 8.0, 150 mM NaCl, 1 mM EDTA, 1 mM DTT, 10 mM MgCl2, 10 mM GTP). Dilutions and incubations were made in 384-well, black flat-bottom plates (Corning) to a total volume of 40 μL and equilibrated for 60 minutes. Polarization was measured on a Spectramax-M5 multi-label plate reader with λex=485 nm and λem=525 nm. Polarization was calculated according to the standard equation: P=(V−H)/(V+H), where P=polarization, V=vertical emission intensity and H=horizontal emission intensity. Kd values were determined by fitting data to a variable-slope sigmoidal binding curve using Prizm 4 graphing software.
(§2) RAB11 and RAB25 proteins were expressed and purified in Escherichia coli strain BL21(DE3) pLysS (Stratagene) as epitope-tagged fusion proteins in various vectors (Novagen). RAB25 (residues E7-Q180) was expressed with an N-terminal GST- and hexahistidine tag with internal thrombin and TEV cleavage sites (GST-H6-RAB25) (SEQ ID NO: 86) in a pET41-1 vector (Novagen) or with an N-terminal hexahistidine tag alone with an internal thrombin cleavage site (H6-RAB25) (SEQ ID NO: 86) in a pET28 vector (Novagen). FIP3 protein (residues 649-756) was expressed with an N-terminal GST-tag with an internal TEV cleavage site (GST-FIP3) in a pGEX6p-1 vector (Novagen). RAB11 (residues 1-175) was expressed with an N-terminal GST-tag with an internal thrombin cleavage site in a pGEX5x-1 vector (Novagen). Transformed bacteria was grown at 37° C. until an OD600=0.8 was reached, at which point the culture was induced with 0.5 mM isopropyl β-D-1-thiogalactopyranoside (IPTG). Induced cells were grown at 30° C. for 6 hours, pelleted and lysed in binding buffer (25 mM Tris-HC;, pH 8.0, 150 mM NaCl, 1 mM EDTA, 1 mM DTT, 10 mM MgCl2, 10 mM GTP) supplemented with a complete protease inhibitor tablet (Roche) by sonication on ice. The lysate was centrifuged at 14,000 rpm to clear insoluble matter prior to loading onto Ni-NTA resin (Qiagen) for hexahistdine-tagged constructs or on GST-bind agarose resin (Biorad) for GST-tagged constructs. The protein-bound bead slurry was washed 4× with ˜20 mL of buffer and retained protein was eluted with either 250 mM imidazole or 20 mM glutathione in buffer for H6-(SEQ ID NO: 86) or GST-proteins, respectively. The eluent was concentrated using a 30 kD exclusion filter and purified by size-exclusion chromatography on a Superdex-75 Column (Amersham Pharmacia Biotech). Fractions containing purified protein were pooled, concentrated and dialyzed into binding buffer or other similar buffer for specific biochemical assays.

[2] = biological target: T2, RAB25 (Homo sapiens, UniProt P57735); assay: Fluorescence polarization binding of FITC-FIP/FITC-RFP peptides to RAB25; conditions: FITC peptide 15 nM
T2 construct: RAB25 (residues E7-Q180) was expressed with an N-terminal GST- and hexahistidine tag; made in house; host or cells: Escherichia coli BL21(DE3) pLysS
T2 sequence (P57735 7-180): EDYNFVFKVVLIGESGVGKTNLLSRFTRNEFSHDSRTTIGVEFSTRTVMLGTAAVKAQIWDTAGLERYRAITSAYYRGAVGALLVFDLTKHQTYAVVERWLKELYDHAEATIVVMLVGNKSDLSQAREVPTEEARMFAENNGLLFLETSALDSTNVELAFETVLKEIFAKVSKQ
Method: as §1, §2

[3] = biological target: GST-H6-RAB25 (UniProt P57735); assay: AlphaScreen competition
[4] = biological target: RAB25 (UniProt P57735); assay: ALPHAscreen competition
[5] = Circular dichroism spectra / percent helicity; type: physicochemical; conditions: 20° C. in water, peptides at 50 μM
Method: We next investigated the structural stability of the RFPs by obtaining circular dichroism (CD) spectra for each peptide. All measurements were made at 20° C. in water with peptides at 50 μM. […] By comparison, stapled FIP peptides (RFPs) show helical CD spectra indicated by minima at approximately 208 and 222 nm (FIG. 11B).
A circular dichroism spectrometer (Jasco J-710, Japan) was used to determine the α-helical content of all peptides. Peptides were dissolved in water to a final concentration of 50 μM in a quartz cuvette with a path length of 1 cm. Absorbance values were taken at 1 nm intervals between 190 and 260 nm for buffer alone and for peptide solutions. The background (buffer) spectrum was subtracted from experimental spectra, which were subsequently subjected to baseline-normalization and curve-smoothing within the spectrometer software. Percent-helicity was calculated from the absorbance at 222 nm using helical models as previously reported in Chen Y H et al., Biochemistry, 13, 3350-9 (1974).

[6] = Peptide thermal stability by CD at 222 nm; type: physicochemical; conditions: CD at 222 nm over 10-90° C.
Method: Peptide thermal stability was measured by scanning the peptide CD at 222 nm over a temperature range (10-90° C.). A sigmoidal unfolding curve was apparent for helices of unmodified FIP peptides (FIP4) with a Tm of ˜34° C. (FIG. 12A).
Peptide thermal stability experiments were performed in a similar manner to circular dichroism experiments in Example 5. Peptide solutions were cooled to 10° C. in a temperature controlled CD-chamber and circular dichroism absorbance at 222 nm was measured at 1 degree intervals while the solution was heated to 90° C. 222 nm CD values were plotted as a function of temperature and fitted to a sigmoidal denaturation curve, with the half-maximal temperature representing the Tm.

[7] = system: RAB25; assay: Fluorescence polarization binding of FITC-FIP/FITC-RFP peptides to RAB25
Method: as §1, §2

[8] = biological target: RAB25 (UniProt P57735); assay: fluorescence polarization
[9] = biological target: RAB11 (UniProt P62491); assay: fluorescence polarization
[10] = biological target: T3, RAB25 (UniProt P57735 7-180); assay: fluorescence polarization (FIG. 19B, RAB25); reference peptide not named
T3 construct: range 7-180; Target of the fluorescence polarization assays; also called H6-RAB25
T3 sequence (looked up): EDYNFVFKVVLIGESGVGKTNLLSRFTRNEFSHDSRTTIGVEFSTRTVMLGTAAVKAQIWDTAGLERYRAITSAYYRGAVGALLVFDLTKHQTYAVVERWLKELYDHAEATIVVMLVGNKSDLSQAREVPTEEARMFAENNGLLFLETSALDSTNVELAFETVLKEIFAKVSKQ
Method: as §1, with “MgCl_2,” for “MgCl2,”, “µL” for “μL”, “$\lambdaex$=485” for “λex=485”, “$\lambdaem$=525” for “λem=525”, “K_d” for “Kd”

[11] = biological target: GST-RAB11 (UniProt P62491); assay: … titration (hook effect), approximately 10 nM GST-RAB11

binding affinity to RAB11 [1]: little or no binding
binding affinity to RAB25 [2]: little or no binding
Molecule: FIP2: unmodified RAB family interacting protein 2 peptide (ERDTHIRELEDYIDNLLVRVMEETPSILRVPY) [reference compound]

IC50 [4]: 14.1 µM
Molecule: FIP3(726-56)

binding affinity to RAB11 [1]: micromolar
relative affinity RAB11 versus RAB25 (selectivity) [7]: tighter binding to RAB11 than RAB25
binding affinity to RAB25 [2]: micromolar
Molecule: FIP4: wild-type unmodified FIP4 peptide (EQEEINFRLRQYMDKIILAILDHNPSILEIKH) [reference compound]
CD curve shape / secondary structure [5]: partially unfolded/helical structure
Tm [6]: ~34 °C

bias for RAB11 versus RAB25 ([1]; ratio of affinities RAB11 vs RAB25): equivalent affinity
Molecule: RFP17: stapled FIP peptide of second design set, SEQ ID NO: 78 (FIG. 7, top to bottom) (RINFRLQN[S5]IDR[S5]IVRIFETNPSILEVK; staple 9-13; not fully specified (C-terminus))
Tm [6]: 54 °C

binding affinity to RAB11 [1]: negligible affinity
binding affinity to RAB25 [2]: negligible affinity
Molecule: RFP31: triple-alanine mutant negative control, SEQ ID NO: 84 (RINFRLQNXIDRXAARIAETNPSILEVK; not fully specified; hydrocarbon staple)

Kd [8]: > 5 µM
Kd [9]: 1.7 µM
Molecule: unmodified FIP3 peptide

fold decrease in binding affinity [10]: ~100 fold
B1: RFP31 (peptide)
peptide: RINFRLQN[S5]IDR[S5]AARIAETNPSILEVK
modifications: staple 9-13; also: N-terminal cap differs by assay: FITC or diethyleneglycol-biotin
notes: Negative control in which the I/V/M contact residues are changed to alanine; also called triple-alanine mutant negative control

concentration of biotinylated peptide at maximum signal [11]: 40 nM
Molecule: ERDTHIRELEDYIDNLLVRVMEETPSILRVPY (also: N-terminal FITC (FP) or biotin (ALPHASCREEN)) [unmodified FIP2 peptide]

More lines, now with the values behind:

Molecule: FIP1: unmodified RAB family interacting protein 1 (class I) peptide (KKEFQVRELEDYIDNLLVRVMEETPNILRIPA) [reference compound]
binding affinity to RAB11 [1]: little or no binding
binding affinity to RAB25 [2]: little or no binding

Molecule: FIP3 protein (from UniProt O75154 649-756)
IC50 [3]: 10 µM
IC50 [4]: 10.1 µM

Molecule: FITC-RFP1-Ox: chemical derivative of FITC-RFP1 containing an oxidized methionine at a critical hydrophobic interaction site with RAB11 ({FITC}-KQEEINFRLQDYIDRIIVAI[Met(O)]ETNPSILEVK)
binding to RAB11 [1]: decreased binding; also recorded: dose-dependent binding

Molecule: FITC-RFP1: unmodified FIP3 peptide conjugated to FITC ({FITC}-KQEEINFRLQDYIDRIIVAIMETNPSILEVK)
binding to RAB11 [1]: dose-dependent binding

Molecule: RFP24: stapled FIP peptide containing an E-R mutation to increase overall charge, SEQ ID NO: 82 (RINFRLQN[S5]IDR[S5]IVRIFETNPSILRVK; staple 9-13; not fully specified (C-terminus))
binding affinity to RAB25 [2]: retained binding affinity

From patent publication US9487562B2, “Stabilized polypeptides as regulators of RAB GTPase function” (President and Fellows of Harvard College, priority 2011, dated 2016)
